Measurements reported in patent publication US20200400662A1 (ALX ONCOLOGY, published 2020).

Biological target: Drug A
Assay: cell-based or functional assay

B1: Fab of Antibody B (Fab, V domains shown)
VH: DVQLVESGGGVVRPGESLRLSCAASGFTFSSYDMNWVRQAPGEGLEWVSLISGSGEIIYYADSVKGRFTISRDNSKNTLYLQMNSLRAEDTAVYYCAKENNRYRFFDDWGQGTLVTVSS
VL: ETVLTQSPGTLTLSPGERATLTCRASQSVYTYLAWYQEKPGQAPRLLIYGASSRATGIPDRFSGSGSGTEFTLTISSLQSEDFAVYYCQQYYDRPPLTFGGGTKVEIK
hemagglutination of Drug A-coated erythrocytes with anti-IgG; molar excess of Fab that prevented it: 400 fold molar excess relative to Drug A
